Measurements reported in article PMC6480712.

Molecular target: T1, human dopamine D2 long receptor (D2LR) fused C-terminally to LgBiT or SmBiT of NanoLuciferase (human), P14416
T1 chain: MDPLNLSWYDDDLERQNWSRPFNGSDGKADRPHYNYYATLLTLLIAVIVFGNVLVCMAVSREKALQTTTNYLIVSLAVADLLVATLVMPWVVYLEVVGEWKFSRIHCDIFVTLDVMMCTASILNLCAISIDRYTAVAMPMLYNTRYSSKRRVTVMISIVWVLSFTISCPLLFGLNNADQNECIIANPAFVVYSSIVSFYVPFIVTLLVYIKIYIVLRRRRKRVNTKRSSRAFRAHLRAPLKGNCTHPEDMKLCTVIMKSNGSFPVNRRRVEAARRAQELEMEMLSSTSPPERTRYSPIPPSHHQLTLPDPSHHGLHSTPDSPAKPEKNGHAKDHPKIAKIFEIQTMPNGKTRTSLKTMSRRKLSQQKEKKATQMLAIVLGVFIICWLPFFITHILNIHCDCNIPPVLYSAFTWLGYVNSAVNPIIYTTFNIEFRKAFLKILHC
Test: split reporter (BiFC, NanoBiT); NanoBiT in HEK293T cells co-transfected with 400 ng D2LR–SmBiT, D2LR–LgBiT and increasing native (untagged) D2LR DNA (0–600 ng), without or with 10 µM spiperone; muscarinic M1 receptor co-transfected instead as control
Conditions: remark: other sources report otherwise

B1: human dopamine D2 long receptor (D2LR) fused C-terminally to LgBiT or SmBiT of NanoLuciferase, P14416-1 1-443 (receptor)
chain: MDPLNLSWYDDDLERQNWSRPFNGSDGKADRPHYNYYATLLTLLIAVIVFGNVLVCMAVSREKALQTTTNYLIVSLAVADLLVATLVMPWVVYLEVVGEWKFSRIHCDIFVTLDVMMCTASILNLCAISIDRYTAVAMPMLYNTRYSSKRRVTVMISIVWVLSFTISCPLLFGLNNADQNECIIANPAFVVYSSIVSFYVPFIVTLLVYIKIYIVLRRRRKRVNTKRSSRAFRAHLRAPLKGNCTHPEDMKLCTVIMKSNGSFPVNRRRVEAARRAQELEMEMLSSTSPPERTRYSPIPPSHHQLTLPDPSHHGLHSTPDSPAKPEKNGHAKDHPKIAKIFEIQTMPNGKTRTSLKTMSRRKLSQQKEKKATQMLAIVLGVFIICWLPFFITHILNIHCDCNIPPVLYSAFTWLGYVNSAVNPIIYTTFNIEFRKAFLKILHC
  fold increase of the luminescent signal with co-transfected native D2LR (4:4:6) against none: 20 fold
  fold increase of the luminescent signal with co-transfected native D2LR (4:4:6) against none, cells treated with 10 µM spiperone: 5 fold
